What all share (test): product formation, HPLC-DAD of ethyl acetate extract; Hanes plot
Holding throughout (assay type): biochemical, Pyrus communis

Substrate in data set [1]: CC(C)(COP(=O)(O)OP(=O)(O)OC[C@H]1O[C@@H](n2cnc3c(N)ncnc32)[C@H](O)[C@@H]1OP(=O)(O)O)[C@@H](O)C(=O)NCCC(=O)NCCSC(=O)c1ccccc1O
The conditions noted are these: malonyl-CoA at saturation, 0.1 M potassium phosphate pH 7.0, 35°C, 5 min. From the text: (§1) product formation, HPLC-DAD of ethyl acetate extract; Hanes plot on PcBIS1

Substrate in data set [2]: CC(C)(COP(=O)(O)OP(=O)(O)OC[C@H]1O[C@@H](n2cnc3c(N)ncnc32)[C@H](O)[C@@H]1OP(=O)(O)O)[C@@H](O)C(=O)NCCC(=O)NCCSC(=O)c1ccccc1
The conditions noted are these: malonyl-CoA at saturation, 0.1 M potassium phosphate pH 7.0, 35°C, 5 min.
Text: as §1

Substrate in data set [3]: CC(C)(COP(=O)(O)OP(=O)(O)OC[C@H]1O[C@@H](n2cnc3c(N)ncnc32)[C@H](O)[C@@H]1OP(=O)(O)O)[C@@H](O)C(=O)NCCC(=O)NCCSC(=O)CC(=O)O
The conditions noted are these: benzoyl-CoA as starter at saturation, 0.1 M potassium phosphate pH 7.0, 35°C, 5 min.
Text: as §1

Substrate in data set [4]: CC(C)(COP(=O)(O)OP(=O)(O)OC[C@H]1O[C@@H](n2cnc3c(N)ncnc32)[C@H](O)[C@@H]1OP(=O)(O)O)[C@@H](O)C(=O)NCCC(=O)NCCSC(=O)c1ccccc1O
The conditions noted are these: malonyl-CoA at saturation, 0.1 M potassium phosphate pH 7.0, 35°C, 5 min. From the text: (§2) product formation, HPLC-DAD of ethyl acetate extract; Hanes plot on PcBIS2
This is another data set of the same source.

Substrate in data set [5]: CC(C)(COP(=O)(O)OP(=O)(O)OC[C@H]1O[C@@H](n2cnc3c(N)ncnc32)[C@H](O)[C@@H]1OP(=O)(O)O)[C@@H](O)C(=O)NCCC(=O)NCCSC(=O)c1ccccc1
The conditions noted are these: malonyl-CoA at saturation, 0.1 M potassium phosphate pH 7.0, 35°C, 5 min.
Text: as §2
The source holds these as a separate data set.

Substrate in data set [6]: CC(C)(COP(=O)(O)OP(=O)(O)OC[C@H]1O[C@@H](n2cnc3c(N)ncnc32)[C@H](O)[C@@H]1OP(=O)(O)O)[C@@H](O)C(=O)NCCC(=O)NCCSC(=O)CC(=O)O
The conditions noted are these: benzoyl-CoA as starter at saturation, 0.1 M potassium phosphate pH 7.0, 35°C, 5 min.
Text: as §2
This is another data set of the same source.

Positions count from the first letter of the chain named.

As usually defined, the Km is the substrate concentration at which the rate is half of its maximum. What is called kcat is the number of substrate molecules converted per active site and unit of time at saturation. As usually defined, the kcat/Km is the second-order rate constant that governs catalysis at low substrate concentration.

B1: PcBIS1 (Pyrus communis) (protein)
chain: MAPLVKNHVEPPHAKILAIGTANPPNVYYQKDYPDFLFRVTKNEHRTDLREKFDRICEKSRTRKRYLYLTEEILNANPSIYTYGAPSLDVRQDMLNPEVPKLGQQAALKAIKEWGQPISKITHLIFCTASCVDMPGADFQLVKLLGLNPSVTRTMIYEAGCYAGATVLRLAKDFAENNEDARVLVVCAEITTVFFHGLTDTHLDILVGQALFADGASAVIVGANPEPEIERPLFEIVACRQTIIPNSEHGVVANIREMGFNYYLSGDVPKFVGGSVVDFLTKTFEKVDGKNKDWNSLFLSVHPGGPAIVDQVEEQLGLKEGKLRATRHVLSEYGNMGAPSVHFILDEMRNKSIGEGKATTGEGLEWGVVIGIGPGLTVETAVLRSESIPC
In the case of B1, in data set [1], the Km was determined as 78.4 ± 4.8 µM, the kcat worked out at 0.77 ± 0.075 s⁻¹ and the kcat/Km amounted to 9820 M⁻¹ s⁻¹. In data set [2], the Km is 1.1 ± 0.2 µM, the kcat worked out at 0.055 ± 0.005 s⁻¹ and the kcat/Km was determined as 50000 M⁻¹ s⁻¹. The Km in data set [3] is 13.7 ± 2.9 µM.

B2: PcBIS2 (Pyrus communis) (protein)
chain: B1 chain with R231S, D267E, S275N, L299F, N350K, G354E
As for B2, in data set [4], the Km turned out to be 95.2 ± 5.4 µM, the kcat is 0.89 ± 0.09 s⁻¹ and the kcat/Km came to 9350 M⁻¹ s⁻¹. Further, in data set [5], the Km worked out at 0.9 ± 0.1 µM, the kcat came to 0.035 ± 0.00167 s⁻¹ and the kcat/Km was 38900 M⁻¹ s⁻¹. For the same protein, the Km in data set [6] stood at 11.6 ± 2.2 µM.

The values above are taken from article PMC4943715, “Expression of Biphenyl Synthase Genes and Formation of Phytoalexin Compounds in Three Fire Blight-Infected Pyrus communis Cultivars” (PLoS ONE, 2016).
